The values that follow come from US5733890A, “Adenylate analogs as potent anti-herpes virus agents” (National Science Council, priority 1996, dated 1998).

Holding throughout (assay): Deamination kinetics of compounds as substrates of adenosine deaminase
Type in all cases: biochemical, calf
What all share (settings): other: adenosine deaminase substrate; buffer solutions

Substrate in data set [1]: Nc1ncnc2c1ncn2COCCO
The source says:
(§1) By following an established procedure [Ogilvie, K. K.; Nguyen-Ba, N.; Gillen, M. F.; Radatus, B. K.; Cheriyan, U. O.; Hanna, H. R.; Smith, K. O.; Galloway, K. S. Synthesis of A Purine Acyclonucleoside Series Having Pronounced Antiviral Activity. The Glyceropurines. Can. J. Chem. 1984, 62, 241-252.], we determined the rates of deamination of VI, 13, 37, 40, and 42 in the presence of calf mucosal adenosine deaminase (EC 3.5.4.4) in buffer solutions.

Substrate in data set [2]: Nc1ncnc2c1ncn2COCCP(=O)(O)O[C@H]1[C@H](O)[C@H](n2cnc3c(N)ncnc32)O[C@@H]1CO
Description: as §1

Substrate in data set [3]: Nc1ncnc2c1ncn2COCCP(=O)(O)O
Description: as §1

Substrate in data set [4]: Nc1ncnc2c1ncn2[C@@H]1O[C@H](CO)[C@@H](O)[C@@H]1O
Description: as §1

B1: calf mucosal adenosine deaminase (EC 3.5.4.4) (Bos taurus) (protein)
chain: MAQTPAFNKPKVELHVHLDGAIKPETILYYGRKRGIALPADTPEELQNIIGMDKPLSLPEFLAKFDYYMPAIAGCREAVKRIAYEFVEMKAKDGVVYVEVRYSPHLLANSKVEPIPWNQAEGDLTPDEVVSLVNQGLQEGERDFGVKVRSILCCMRHQPSWSSEVVELCKKYREQTVVAIDLAGDETIEGSSLFPGHVKAYAEAVKSGVHRTVHAGEVGSANVVKEAVDTLKTERLGHGYHTLEDATLYNRLRQENMHFEVCPWSSYLTGAWKPDTEHPVVRFKNDQVNYSLNTDDPLIFKSTLDTDYQMTKNEMGFTEEEFKRLNINAAKSSFLPEDEKKELLDLLYKAYGMPSPASAEQCL
notes: calf mucosal adenosine deaminase; from tissue; host or cells: calf mucosa
As for B1, the Michaelis-Menten constant (Km) came out at 138.0 µM in data set [1], 166.2 µM in data set [2], 247.5 µM in data set [3] and 45.3 µM in data set [4].

The Km is the substrate concentration at which the rate is half of its maximum.
